In paper PMC7248283 one finds binding of flagellin (FlaA/FlaB band) to GST-FliS left when saturated by HP1076 (fraction of the binding without HP1076) and Kd data, which are given here for 1 molecule.

Where “and” joins values, the source holds several entries; their conditions need not be identical. Identical values can stand only once.

The target of assay [1] is GST-FliS (Helicobacter pylori (strain 26695)). Kind of assay: pull-down; competitive: the same experiment as a5, for purified HP1076 added at molar ratios to GST-FliS of 0, 0.5:1, 5:1 and 50:1 in the presence of H. pylori lysate; read-out is the flagellin band.
In assay [2] the target is FliS (flagellar export chaperone FliS of Helicobacter pylori), GST tag removed (Helicobacter pylori (strain 26695)). Kind of assay: MST; labelled FliS or FliS-FlaBc (40 nM) mixed with HP1076 (6.2 μM to 0.189 nM, or 3.83 mM to 117 μM); 20 mM Tris pH 7.5, 150 mM NaCl, 2 mM DTT; 21.5°C.
The target of assay [3] is FliS-FlaBc complex (Helicobacter pylori (strain 26695) | Helicobacter pylori) (UniProt Q07911). The description is as above.

B1: His-HP1076 (natural protein)
chain: MDILKTLQKHLGDVETSDFTTNAIEKSQQIAKFSRDMKNINESVGALQVLQIACKKLFNKSMGLEDKDALQASIIKQELREIVENCQFLASPLFDTQLNIAINDEIFSMIVVNPLDLLENVGEFQAYLEEKLNEIKELLGYLSESLSNPKAFMPSFSNQSLKDLLSDNLRA
The term Kd denotes the constant that tells how readily two partners part at equilibrium. A higher Kd goes with a looser complex. As to B1, in assay [1], the binding of flagellin (FlaA/FlaB band) to GST-FliS left when saturated by HP1076 (fraction of the binding without HP1076) was 0.2 and 0.25. The Kd in assay [2] is 15 nM; in assay [3] it was 1.6 mM.
